Ends that are not written are not given here.
T1: human IL-2Rβ (CD122 protein, Fc Tag) (27-239) (human, UniProt P14784 27-239)
T1 construct: range 27-239; Bought protein; also called IL-2Rβ subunit; IL-2Rβ-Fc; not shown: Fc Tag of the bought protein (ACRObiosystems ILB-H5253)
T1 sequence (looked up): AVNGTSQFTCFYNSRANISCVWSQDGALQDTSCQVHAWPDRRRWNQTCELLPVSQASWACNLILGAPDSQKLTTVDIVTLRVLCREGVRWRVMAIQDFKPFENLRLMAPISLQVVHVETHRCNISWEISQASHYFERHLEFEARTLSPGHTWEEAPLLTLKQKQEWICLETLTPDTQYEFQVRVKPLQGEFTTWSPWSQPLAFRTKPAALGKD

T2: human IL-2Rγc (CD132 protein, Fc Tag) (23-254) (human, UniProt P31785 23-254)
T2 construct: range 23-254; Bought protein; also called IL-2Rγc subunit; γc subunit; not shown: Fc Tag of the bought protein (ACRObiosystems ILG-H5256)
T2 sequence (looked up): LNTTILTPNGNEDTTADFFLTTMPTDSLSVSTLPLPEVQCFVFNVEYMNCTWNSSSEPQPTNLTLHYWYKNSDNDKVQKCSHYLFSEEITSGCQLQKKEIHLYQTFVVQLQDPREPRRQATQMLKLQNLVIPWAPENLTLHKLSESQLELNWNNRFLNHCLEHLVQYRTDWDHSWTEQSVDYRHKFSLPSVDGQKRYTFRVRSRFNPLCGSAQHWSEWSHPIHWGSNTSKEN


target: T1, human IL-2Rβ (CD122 protein, Fc Tag) …; assay: IC50, method not told in the paragraph

| IC50 | Binder |
| --- | --- |
| < 10 µM | RSCYYKRPRLWCSE [IL-2Rβ ligand SEQ ID NO: 1044] |

target: T2, human IL-2Rγc (CD132 protein, Fc Tag) …; assay: IC50, method not told in the paragraph

| IC50 | Binder |
| --- | --- |
| < 10 µM | SLLKCYNASTCASVF [IL-2Rγc ligand SEQ ID NO: 948] |
| < 10 µM | DCSMWEGVELCW (also called Peptide F) [IL-2Rγc ligand SEQ ID NO: 224] |
| < 10 µM | DLSDLSTFWLSQ (not fully specified, Family 3; also called 248 or 1051) [IL-2Rγc ligand SEQ ID NO: 1051] |
| < 10 µM | MCWLEWGEWVGSCL [IL-2Rγc ligand SEQ ID NO: 236] |
| < 10 µM | CPSMLQGPERTWVC [IL-2Rγc ligand SEQ ID NO: 266] |
| < 10 µM | RTCTEWENVVLCWV (not fully specified; cysteine pairing not given here) [IL-2Rγc ligand SEQ ID NO: 202] |
| < 10 µM | KVCEMWGGVLLCWN [IL-2Rγc ligand SEQ ID NO: 198] |

Source: patent US20230192767A1 (MEDIKINE, published 2023)
